System: hippocampal region CA1 neurocytes
Assay: Apoptosis-inhibitory effect in vivo, transient forebrain ischemia, administration before ischemic damage
Parameters: species or system Mongolian gerbil
Settings: for numbers of surviving nuclei contained in the CA1 region per unit length of CA1: mean±standard deviation, saline 18±25, Sham-op 265±38; for number of nuclei showing apoptosis positive reaction (TUNEL) against the total number of cells: saline 69.7±17.0, Sham-op 0.0±0.0; for numbers of neurocytes in CA1: 2 μg MK, saline 10±10, sham-op 263±31
From the text: (1) Six to 16 male Mongolian gerbils (6- to 8-week old, body weight: 60 to 80 g) for each group were housed in “HONEY MATIC M-3” (KIMURA MEDICAL INSTRUMENT LTD.), an anesthetic delivery device for Fluothane, and the container was filled with an appropriate amount of inhalation anesthetic “Fluothane” (halothane according to Japanese Phamacopeia). The anesthetized animals were fixed on an operating table equipped with an injection holder (NARISHINGE SCEITIFIC INSTRUMENT LAB.; TYPE SR-5N, No. 97024). After the head was subjected to midline incision, a hole for inserting a syringe of an appropriate size was made by a dental drill at a site 2 mm away from the bregma towards the left eyeball direction. Through this hole, 2 μl of 0.25 mg/ml, 0.5 mg/ml or 1 mg/ml MK solutions (0.5 μg, 1.0 μg, 2.0 μg ) (in physiological saline) were seperately injected into the ventricle with a microsyringe (HAMILTON MICROLITER #701). As control groups, a saline injected group and the sham operated (Sham-op) group were prepared. After injection into the ventricle, the mice were left for 4 min and the operated site was sutured. The chest was subjected to midline incision to expose both right and left common carotid arteries. The both arteries were ligated with two pieces of Sugita brain aneurysm clip (standard type; MIZUHO) to stop blood flow for 5 min, and the blood was circulated again. During ischemic loading, brain temperature and body temperature were maintained constant (37±0.2° C.). Each mouse was distinguished and housed in a nursery cage after coming out of anesthesia to breed, allowing the animals to freely intake water and food. After one week, the mice were fixed while perfusing with saline containing 0.2% heparin (Novo Heparin Injection 100; Japan Hoechet Marion Russell LTD) and 4% paraformaldehyde solution, and beheaded. The brain was excised using scissors, and immersed in 4% paraformaldehyde fixative for one day. The rear portion from 2 mm ahead of the bregma was divided into three using a double-edged razor (Feather). These sections were further fixed for 24 hours. Tissues containing dorsal hippocampus were dehydrated and penetrated, and embedded with paraffin.
A 5 μm section, from 0.5 to 1.0 mm from the tip of the hippocampus or from 1.4 to 1.9 mm behind the sagittal suture was prepared from this paraffin block and observed by the TUNEL method (In situ Apoptosis Detection Kit, TaKaRa). The results are shown in FIG. 8 (×25) and FIG. 9 (×100).
(2) By following the method described in (1), MK solution (0.063 μg, 0.125 μg, 0.25 μg, 0.5 μg, 1 fig, or 2 μg), was injected into the ventricle just before development of ischemic injury to examine protective effects of MK on delayed neuronal death. Seven days after the injury, the CA1 region were stained with hematoxylin-eosine. Micrographs in low magnification (×25) are shown in FIG. 10 (FIG. 10a: saline, FIG. 10b: Sham-op, FIG. 10c: MK 2 μg, FIG. 10d: MK 1 μg, FIG. 10e: MK 0.5 μg, FIG. 10f: MK 0.25 μg), and those in high magnification (×100) in FIG. 11 (FIG. 11a: saline, FIG. 11b: Sham-op, FIG. 11c: MK 2 μg, FIG. 11d: MK 1 vg, FIG. 11e: MK 0.5 vg, FIG. 11f: MK 0.25 μg).
For quantitative evaluation, the numbers of surviving nuclei contained in the CA1 region per unit length of CA1 were obtained (FIG. 12). The values were 18±25/mm(n=15, mean±standard deviation) for the saline administration group and 265±38 /mm (n=23) for the Sham-op group. For the 0.5, 1, or 2 μg MK administration groups, the values were 217±109 (n=7), 228±84 (n=8), and 243±82 (n=10), respectively. The values decreased when MK concentration was low (FIG. 12). There was a significant difference between the saline administrated group and MK administrated (0.5 to 2 μg MK) groups (ANOVA and post-hoc Fisher's PLSD teat, p<0.0001).
Whether the effect of MK administration (2 μg) continues was examined. […]

B1: MK: midkine, a heparin-binding growth and differentiation factor; human MK protein (SEQ ID NO: 3; or recombinant, secreted by yeast) (protein, UniProt P21741 21-143, looked up)
Midkine: VAKKKDKVKKGGPGSECAEWAWGPCTPSSKDCGVGFREGTCGAQTQRIRCRVPCNWKKEFGADCKYKFENWGACDGGTGTKVRQGTLKKARYNAQCQETIRVTKPCTPKTKAKAKAKKGKGKD
For B1, the “nuclei in CA1 region, hematoxylin-eosine, high magnification” value (0.25 μg MK into the ventricle just before ischemic injury, seven days after) was “Deteriorated nuclei were observed”, the “numbers of surviving nuclei contained in the CA1 region per unit length of CA1” value (from here on “numbers … per unit length of CA1”) (0.5 μg MK just before ischemia, seven days after) was 217±109 /mm and the “number of nuclei showing apoptosis positive reaction (TUNEL) against the total number of cells” value (“number … of cells” for short) (0.5 μg MK just before ligation, seven days after) was 7.8±19.8. The “numbers … per unit length of CA1” value (1 μg MK just before ischemia, seven days after) was 228±84 /mm, the “number … of cells” value (1 μg MK just before ligation, seven days after) was 11.0±14.7 and the “numbers … per unit length of CA1” value (2 μg MK just before ischemia, seven days after) was 243±82 /mm. For the same molecule, the “number … of cells” value (2 μg MK just before ligation, seven days after) was 4.6±12.2, the “numbers of neurocytes in CA1” value (four weeks after ischemia) was 157±60 cells/mm and the “numbers of neurocytes in CA1” value (one week after ischemia) was 219±74 cells/mm. The “numbers of neurocytes in CA1” value (three weeks after ischemia) was 185±83 cells/mm, the “numbers of neurocytes in CA1” value (two weeks after ischemia) was 152±72 cells/mm and the “nuclei in CA1 region, hematoxylin-eosine, high magnification” value (0.5 to 2 μg MK into the ventricle just before ischemic injury, seven days after) was “survived circle nuclei were observed”. The “TUNEL stained nuclei in hippocampal region CA1” value (0.5 to 2 μg MK just before ligation, seven days after) was “Few stained nuclei were observed”, the “activity against delayed neuronal death” value (28 days after the injury) was “showed a significant activity” and the “cells containing TUNEL reaction positive nuclei and atrophied neurocytes in hippocampal region CA1” value (MK injected into the ventricle before 5 min ischemia, one week after) was “such neurocytes were not observed”.

Reference: patent publication US20050079151A1, “Therapeutic agents for apoptosis-related diseases” (priority 1998, published 2005)
